Reference: the RNAGym collection of RNA variant scans (doi:10.1093/nar/gkz1192)

B1: CPEB3 Ribozyme (parent)
chain: UAACAGGGGGCCACAGCAGAAGCGUUCACGUCGCAGCCCCUGUCAGAUUCUGGUGAAUCUGCGAAUUCUGCUGUAUAUCUC

Variants of: B1
Test: self-cleavage, relative activity (ratio to wild type); higher = more cleavage; in vitro, sequencing
In short: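 Relative activity compares each variant's cleaved/total read fraction with that of the unmutated ribozyme. To get these fractions, barcoded CPEB3 ribozyme libraries from rounds of error-prone PCR were transcribed with T7 RNA polymerase for 5 hours at 37°C and then given 15 min of DNase I treatment before EDTA was added. The RNAs were reverse transcribed with template switching and sequenced on Illumina, and DNA sequencing linked barcodes to variants. A minimum of 5 reads applied, and three batches were averaged.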
For UAACAGGGGGCCACAGCAGAAGCGUUCACGUCGCAGGCCCUGUCAGAUUCUGGUGAAUCUGCGUAUUCUGCUGUAUAUCUC, the self-cleavage was 0.22. UAACAGGGGGCCACAGCAGAAGCGUUCACGUCGCAGGCCCUGUCAGAUUCUGGUGAAUCUGCGGAUUCUGCUGUAUAUCUC gave a self-cleavage of 0.54. UAACAGGGGGCCACAGCAGAAGCGUUCACGUCGCAGACCCUGUCCGAUUCUGGUGAAUCUGCGAAUUCUGCUGUAUAUCUC gave a self-cleavage of 0.1. UAACAGGGGGCCACAGCAGAAGCGUUCACGUCGCAGACCCUGUCGGAUUCUGGUGAAUCUGCGAAUUCUGCUGUAUAUCUC showed a self-cleavage of 0.26. In the case of UAACAGGGGGCCACAGCAGAAGCGUUCACGUCGCAGACCCUGUCUGAUUCUGGUGAAUCUGCGAAUUCUGCUGUAUAUCUC, the self-cleavage is reported as 0.23. For UAACAGGGGGCCACAGCAGAAGCGUUCACGUCGCAGACCCUGCCAGAUUCUGGUGAAUCUGCGAAUUCUGCUGUAUAUCUC, the self-cleavage was 0.43. With UAACAGGGGGCCACAGCAGAAGCGUUCACGUCGCAGACCCUGACAGAUUCUGGUGAAUCUGCGAAUUCUGCUGUAUAUCUC the self-cleavage was 0.14. UAACAGGGGGCCACAGCAGAAGCGUUCACGUCGCAGACCCUGUCAGAUACUGGUGAAUCUGCGAAUUCUGCUGUAUAUCUC showed a self-cleavage of 0.13. UAACAGGGGGCCACAGCAGAAGCGUUCACGUCGCAGACCCUGUCAGAUCCUGGUGAAUCUGCGAAUUCUGCUGUAUAUCUC gave a self-cleavage of 0.11. In the case of UAACAGGGGGCCACAGCAGAAGCGUUCACGUCGCAGGCCCUGUCAGAUUCUGGUGAAUCUGGGAAUUCUGCUGUAUAUCUC, the self-cleavage is reported as 0.5. UAACAGGGGGCCACAGCAGAAGCGUUCACGUCGCAGACCCUGUCAGAAUCUGGUGAAUCUGCGAAUUCUGCUGUAUAUCUC showed a self-cleavage of 0.12. UAACAGGGGGCCACAGCAGAAGCGUUCACGUCGCAGACCCUGUCAGACUCUGGUGAAUCUGCGAAUUCUGCUGUAUAUCUC gave a self-cleavage of 0.41. With UAACAGGGGGCCACAGCAGAAGCGUUCACGUCGCAGGCCCUGUCAGAUUCUGGUGAAUCUGCGAAUUCUCCUGUAUAUCUC the self-cleavage was 0.2. In the case of UAACAGGGGGCCACAGCAGAAGCGUUCACGUCGCAGACCCUGUCAGAUUCCGGUGAAUCUGCGAAUUCUGCUGUAUAUCUC, the self-cleavage is reported as 0.17. UAACAGGGGGCCACAGCAGAAGCGUUCACGUCGCAGACCCUGUCAGAUUCUGGUGAAUCUGCGAAUUCUGCUGUAUAACUC gave a self-cleavage of 0.2. UAACAGGGGGCCACAGCAGAAGCGUUCACGUCGCAGACCCUGUCAGAUUCUGGUGAAUCUGCGAAUUCUGCUGUAUACCUC gave a self-cleavage of 0.35. Variant UAACAGGGGGCCACAGCAGAAGCGUUCACGUCGCAGACCCCGUCAGAUUCUGGUGAAUCUGCGAAUUCUGCUGUAUAUCUC has a self-cleavage of 0.25. Work on UAACAGGGGGCCACAGCAGAAGCGUUCACGUCGCAGACCCAGUCAGAUUCUGGUGAAUCUGCGAAUUCUGCUGUAUAUCUC yielded a self-cleavage of 0.19. UAACAGGGGGCCACAGCAGAAGCGUUCACGUCGCAGGCCCUGCCAGAUUCUGGUGAAUCUGCGAAUUCUGCUGUAUAUCUC gave a self-cleavage of 0.29. UAACAGGGGGCCACAGCAGAAGCGUUCACGUCGCAGACCCUGUCAGAUUCUGGUGAAUCUGCGGAUUCUGCUGUAUAUCUC showed a self-cleavage of 0.25. UAACAGGGGGCCACAGCAGAAGCGUUCACGUCGCAGACCCUGUCAGAUUCUGGUGAAUCUGCGAAUUCUGCUCUAUAUCUC gave a self-cleavage of 0.38. Work on UAACAGGGGGCCACAGCAGAAGCGUUCACGUCGCAGGCCCUGUCAGAUUCUGGUGAAUCUGCGAAUUCAGCUGUAUAUCUC yielded a self-cleavage of 0.19. In the case of UAACAGGGGGCCACAGCAGAAGCGUUCACGUCGCAGGCCCUGUCAGAUUCUGGUGAAUCUGCGAAUUCCGCUGUAUAUCUC, the self-cleavage is reported as 0.23. UAACAGGGGGCCACAGCAGAAGCGUUCACGUCGCAGGCCCUGUCAGAUCCUGGUGAAUCUGCGAAUUCUGCUGUAUAUCUC showed a self-cleavage of 0.38. In the case of UAACAGGGGGCCACAGCAGAAGCGUUCACGUCGCAGGCCCUGUCAGAUUCGGGUGAAUCUGCGAAUUCUGCUGUAUAUCUC, the self-cleavage is reported as 0.78. UAACAGGGGGCCACAGCAGAAGCGUUCACGUCGCAGGCCCUGUCGGAUUCUGGUGAAUCUGCGAAUUCUGCUGUAUAUCUC showed a self-cleavage of 0.7. For UAACAGGGGGCCACAGCAGAAGCGUUCACGUCGCAGGCCCUGUCUGAUUCUGGUGAAUCUGCGAAUUCUGCUGUAUAUCUC, the self-cleavage was 0.13. UAACAGGGGGCCACAGCAGAAGCGUUCACGUCGCAGACCCUGUCAGAUUCUGGUGAAUCUGCGAAUUCUGCCGUAUAUCUC gave a self-cleavage of 0.33. Variant UAACAGGGGGCCACAGCAGAAGCGUUCACGUCGCAGACCCUGUCAGAUUCUGGUGAGUCUGCGAAUUCUGCUGUAUAUCUC has a self-cleavage of 0.2. Variant UAACAGGGGGCCACAGCAGAAGCGUUCACGUCGCAGGCCCUGUCAGAUUCUGGUGAAUCUGCGAAUUCUGCUGUUUAUCUC has a self-cleavage of 1.13. Variant UAACAGGGGGCCACAGCAGAAGCGUUCACGUCGCAGGCCCUGUCAGAUUCUGGUGAGUCUGCGAAUUCUGCUGUAUAUCUC has a self-cleavage of 0.44. For UAACAGGGGGCCACAGCAGAAGCGUUCACGUCGCAGGCCCUGUCAGAUUCUGGUGAAUGUGCGAAUUCUGCUGUAUAUCUC, the self-cleavage was 0.13. With UAACAGGGGGCCACAGCAGAAGCGUUCACGUCGCAGACCCUGUCAGAUUCUUGUGAAUCUGCGAAUUCUGCUGUAUAUCUC the self-cleavage was 0.35. With UAACAGGGGGCCACAGCAGAAGCGUUCACGUCGCAGACCCUGUCAGAUUCUGGUGAAUCUGCGAAUUCAGCUGUAUAUCUC the self-cleavage was 0.12. Work on UAACAGGGGGCCACAGCAGAAGCGUUCACGUCGCAGGCCCUUUCAGAUUCUGGUGAAUCUGCGAAUUCUGCUGUAUAUCUC yielded a self-cleavage of 0.29. In the case of UAACAGGGGGCCACAGCAGAAGCGUUCACGUCGCAGACCCUGUCAGAUUCUGGUGAAUUUGCGAAUUCUGCUGUAUAUCUC, the self-cleavage is reported as 0.24. Work on UAACAGGGGGCCACAGCAGAAGCGUUCACGUCGCAGGCCCUGUCAGAUUCUGGUGAAUCUGCGAAUUCUGCUGUAUAUCUC yielded a self-cleavage of 0.8. With UAACAGGGGGCCACAGCAGAAGCGUUCACGUCGCAGACCCUGUCAGAUUCUGGUGAAUCUGCGAAUUCUGCUGUAUAUCUC the self-cleavage was 0.28. With UAACAGGGGGCCACAGCAGAAGCGUUCACGUCGCAGGCCCUGUCAGAUUCUGGUGAAUCUGCGAAUUCUGCUGUAUUUCUC the self-cleavage was 0.61. With UAACAGGGGGCCACAGCAGAAGCGUUCACGUCGCAGACCCUGUCAGAUUCUGGUGAAUCUGCGAAUUCUGCUGCAUAUCUC the self-cleavage was 0.17. For UAACAGGGGGCCACAGCAGAAGCGUUCACGUCGCAUCCCCUGUCAGAUUCUGGUGAAUCUGCGAAUUCUGCUGUAUACCUC, the self-cleavage was 0.17. In the case of UAACAGGGGGCCACAGCAGAAGCGUUCACGUCGCAUCCCCUGUCAGAUUCUGGUGAAUCUGCGAAUUCUGCUGUAUAACUC, the self-cleavage is reported as 0.43. UAACAGGGGGCCACAGCAGAAGCGUUCACGUCGCAGACACUGUCAGAUUCUGGUGAAUCUGCGAAUUCUGCUGUAUAUCUC gave a self-cleavage of 0.29. Variant UAACAGGGGGCCACAGCAGAAGCGUUCACGUCGCAGGCCCUGUCAGGUUCUGGUGAAUCUGCGAAUUCUGCUGUAUAUCUC has a self-cleavage of 0.58. Work on UAACAGGGGGCCACAGCAGAAGCGUUCACGUCGCAUCCCCUGUCAGAUUCUGGUGAAUCUGCGAAUUCUGCUGUAAAUCUC yielded a self-cleavage of 0.2. UAACAGGGGGCCACAGCAGAAGCGUUCACGUCGCAUCCCCUGUCAGAUUCUGGUGAAUCUGCGAAUUCUGCUGUACAUCUC showed a self-cleavage of 0.2. UAACAGGGGGCCACAGCAGAAGCGUUCACGUCGCAGGCCCUGUCAGACUCUGGUGAAUCUGCGAAUUCUGCUGUAUAUCUC showed a self-cleavage of 0.45. With UAACAGGGGGCCACAGCAGAAGCGUUCACGUCGCAGGCCAUGUCAGAUUCUGGUGAAUCUGCGAAUUCUGCUGUAUAUCUC the self-cleavage was 0.29. UAACAGGGGGCCACAGCAGAAGCGUUCACGUCGCAGACCCUGUCAGAUUCUGGUGAAUCUGCGAAUUCUGCUGUACAUCUC showed a self-cleavage of 0.35. Variant UAACAGGGGGCCACAGCAGAAGCGUUCACGUCGCAGACCCUGUCAGAUUCUGGGGAAUCUGCGAAUUCUGCUGUAUAUCUC has a self-cleavage of 0.2. With UAACAGGGGGCCACAGCAGAAGCGUUCACGUCGCAGGCCCUGUAAGAUUCUGGUGAAUCUGCGAAUUCUGCUGUAUAUCUC the self-cleavage was 0.39. In the case of UAACAGGGGGCCACAGCAGAAGCGUUCACGUCGCAGAACCUGUCAGAUUCUGGUGAAUCUGCGAAUUCUGCUGUAUAUCUC, the self-cleavage is reported as 0.27. Variant UAACAGGGGGCCACAGCAGAAGCGUUCACGUCGCAGGCCCUGUCAGAUUCUGGUGAAUCUGCGAAUACUGCUGUAUAUCUC has a self-cleavage of 0.48. Work on UAACAGGGGGCCACAGCAGAAGCGUUCACGUCGCAGGCCCUGUCAGAUUCUGGUGAAUCUGCGAAUUAUGCUGUAUAUCUC yielded a self-cleavage of 0.18. Variant UAACAGGGGGCCACAGCAGAAGCGUUCACGUCGCAGACCCUGUCAGAUUCUGGUGAAUCUGCGAAUUCUGCUGUGUAUCUC has a self-cleavage of 0.19. Variant UAACAGGGGGCCACAGCAGAAGCGUUCACGUCGCAGACCCUGUCAGAUUCUGGUGAAUCUGCGAAUACUGCUGUAUAUCUC has a self-cleavage of 0.14. UAACAGGGGGCCACAGCAGAAGCGUUCACGUCGCAGACCCUGUCAGAUUCUGGUGAAUCUGCGAAUCCUGCUGUAUAUCUC showed a self-cleavage of 0.13. UAACAGGGGGCCACAGCAGAAGCGUUCACGUCGCAGACCCUGUCAGAUUCUGGUGAAUCUGCGAAUGCUGCUGUAUAUCUC gave a self-cleavage of 0.17. UAACAGGGGGCCACAGCAGAAGCGUUCACGUCGCAGACCCUGUCAGAUUCUGGUGAAUCUGCGAAUUCUGUUGUAUAUCUC showed a self-cleavage of 0.2. For UAACAGGGGGCCACAGCAGAAGCGUUCACGUCGCAGACCCUGUCAGAUUCUGGUGAAUCUGCGAAUUCUGCUGUAUGUCUC, the self-cleavage was 0.18. UAACAGGGGGCCACAGCAGAAGCGUUCACGUCGCAGACCCUGUCAGAUUCUGGUGAAUCUGCGAAUUCUGCUGUAUUUCUC showed a self-cleavage of 0.28. Variant UAACAGGGGGCCACAGCAGAAGCGUUCACGUCGCAGACCCUGUCAGAUUCUGGUGAAUCUGCGAAUUUUGCUGUAUAUCUC has a self-cleavage of 0.09. UAACAGGGGGCCACAGCAGAAGCGUUCACGUCGCAGACCCUGUCAGAUUCUGGUGAAUCAGCGAAUUCUGCUGUAUAUCUC showed a self-cleavage of 0.14. In the case of UAACAGGGGGCCACAGCAGAAGCGUUCACGUCGCAGACCCUGUCAGAUUCUGGUGAAUCCGCGAAUUCUGCUGUAUAUCUC, the self-cleavage is reported as 0.09. UAACAGGGGGCCACAGCAGAAGCGUUCACGUCGCAUCCCCUGUCAGAUUCUGGUGAAUCUGCGAAUUCUGCUGUAUAUCAC showed a self-cleavage of 0.29. UAACAGGGGGCCACAGCAGAAGCGUUCACGUCGCAUCCCCUGUCAGAUUCUGGUGAAUCUGCGAAUUCUGCUGUAUAUCCC gave a self-cleavage of 0.46. For UAACAGGGGGCCACAGCAGAAGCGUUCACGUCGCAGACCCUGUCAGAUUCUGGUGAAUCUGCGAUUUCUGCUGUAUAUCUC, the self-cleavage was 0.36. For UAACAGGGGGCCACAGCAGAAGCGUUCACGUCGCAGACCCUGUCAGAUUCUGGUGAAUCUGCGAGUUCUGCUGUAUAUCUC, the self-cleavage was 0.16.
